Measured values as given in patent US20250340608A1 (PROTAGONIST THERAPEUTICS, published 2025).
Numbered stars: 1 amine (or outer) side, 2 acyl side, 3 side chain; on linkers, the order of the positions; unused ones are H or OH. Square brackets hold non-standard residues; d marks the D form. Primed or numbered codes have the meaning given here. Ends that are not written are not given here. * marks the point of attachment. Ida = iminodiacetic acid, O=C(CN(CC(=O)[*:3])[*:1])[*:2]; PEG8(3) = PEG8 side chain conjugate on Lys; β3hP = O=C(O)C[C@@H]1CCCN1; Isovaleryl = CC(C)CC(=O)*

T1: human ferroportin (SLC40A1) fused in frame with GFP, stably expressed on HEK293 cells (human, UniProt Q9NP59 1-571)
T1 sequence (looked up): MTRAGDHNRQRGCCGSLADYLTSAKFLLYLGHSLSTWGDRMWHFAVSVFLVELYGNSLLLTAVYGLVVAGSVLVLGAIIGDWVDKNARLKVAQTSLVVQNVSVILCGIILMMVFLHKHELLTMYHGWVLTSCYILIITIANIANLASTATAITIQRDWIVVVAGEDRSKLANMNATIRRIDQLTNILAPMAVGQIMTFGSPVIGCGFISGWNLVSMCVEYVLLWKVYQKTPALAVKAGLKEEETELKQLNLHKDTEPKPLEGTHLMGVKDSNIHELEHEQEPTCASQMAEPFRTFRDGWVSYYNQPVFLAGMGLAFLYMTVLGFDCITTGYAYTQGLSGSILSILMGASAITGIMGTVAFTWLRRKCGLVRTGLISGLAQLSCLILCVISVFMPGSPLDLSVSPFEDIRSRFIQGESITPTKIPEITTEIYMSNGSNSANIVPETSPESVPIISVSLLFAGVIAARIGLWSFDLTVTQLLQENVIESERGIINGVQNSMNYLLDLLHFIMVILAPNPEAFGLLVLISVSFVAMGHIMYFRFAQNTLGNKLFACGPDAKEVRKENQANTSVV

T2: human ferroportin (SLC40A1) fused in frame with GFP, stably expressed in HEK293 cells (human, UniProt Q9NP59 1-571)
T2 sequence (looked up): T1 sequence (looked up)

B1: Compound 358 (peptide)
peptide: DTHFPCIKFKPHSKECK
modifications: not fully specified; N-terminal isovaleric acid; K10(isoglu-Palm); C-terminal NH2
B2: Compound 291 (peptide)
peptide: Isovaleryl-DTHFPCIKF-NH2
SMILES: CC[C@H](C)[C@H](NC(=O)[C@H](CS)NC(=O)[C@@H]1CCCN1C(=O)[C@H](Cc1ccccc1)NC(=O)[C@H](Cc1c[nH]cn1)NC(=O)[C@@H](NC(=O)[C@H](CC(=O)O)NC(=O)CC(C)C)[C@@H](C)O)C(=O)N[C@@H](CCCCN)C(=O)N[C@@H](Cc1ccccc1)C(N)=O
B3: Compound 288 (peptide)
peptide: Isovaleryl-DTHFPCIIF-NH2
SMILES: CC[C@H](C)[C@H](NC(=O)[C@H](CS)NC(=O)[C@@H]1CCCN1C(=O)[C@H](Cc1ccccc1)NC(=O)[C@H](Cc1c[nH]cn1)NC(=O)[C@@H](NC(=O)[C@H](CC(=O)O)NC(=O)CC(C)C)[C@@H](C)O)C(=O)N[C@H](C(=O)N[C@@H](Cc1ccccc1)C(N)=O)[C@@H](C)CC

Molecular target: T1, human ferroportin (SLC40A1) fused in …
Experiment: cell-based or functional assay

| EC50 (nM) (n > 3) | Binder |
| --- | --- |
| > 1000 | H-DTHFPCIIA-NH2 [Compound 278 (DTHFPCIIA-NH2)] |
| > 1000 | H-ATHFPCIIF-NH2 [Compound 284 (ATHFPCIIF-NH2)] |
| > 1000 | H-DTHFACIIF-NH2 [Compound 280 (DTHFACIIF-NH2)] |
| 739 | H-DTAFPCIIF-NH2 [Compound 283 (DTAFPCIIF-NH2)] |
| > 1000 | H-DTHFPCAIF-NH2 [Compound 279 (DTHFPCAIF-NH2)] |
| 382 | H-DTHFPCIAF-NH2 [Compound 51 (DTHFPCIAF-NH2)] |
| 388 | H-DAHFPCIIF-NH2 [Compound 52 (DAHFPCIIF-NH2)] |

Molecular target: T2, human ferroportin (SLC40A1) fused in …
Experiment: cell-based or functional assay

| Potency: % (activity) at 1 µM [%] | Potency EC50 [nM] | Potency EC50 (nM) | Binder |
| --- | --- | --- | --- |
| 62 | – | – | H-DTHFPCIIR-NH2 [Compound 305] |
| 77 | – | – | H-ETHFPCIIF-NH2 [Compound 300] |
| 52 | – | – | H-DTHFPCIF-NH2 [Compound 293] |
| 55 | – | – | H-DTHFPCIIK-NH2 [Compound 304] |
| 89 | – | – | H-DTHFPCILF-NH2 [Compound 308] |
| 55 | – | – | H-DTHFPCILK-NH2 [Compound 309] |
| – | 6 | – | B1 |
| – | – | > 1000 | [Ida]THF[β3hP]CIIF-NH2 [Compound 285] |
| 0 | – | – | H-DTHFPCIEK-NH2 [Compound 310] |
| 75 | – | – | H-DTHFPCIVF-NH2 [Compound 307] |
| – | – | > 1000 | H-DTHFPCIEF-NH2 [Compound 287] |
| 64 | – | – | H-DTHFPCIKFF-NH2 [Compound 297] |
| – | 7 | – | B2 |
| 60 | – | – | H-DTKFPCIIF-NH2 [Compound 302] |
| – | – | > 1000 | Isovaleryl-DTHFPCIKKEPHSKECK-NH2 (not fully specified (bridges); cysteine pairing not given here) [Compound 357] |
| 64 | – | – | H-LTHFPCIIF-NH2 [Compound 299] |

Molecular target: T2, human ferroportin (SLC40A1) fused in …
Experiment: cell-based or functional assay
Remark: another data set of the same source

| EC50 (nM) (n = 3) | % Activity At 1 uM [%] | Binder |
| --- | --- | --- |
| > 300 | – | H-DTHFPCIF-NH2 (also: homodimer via disulfide between Cys6 of each monomer) [Compound 312] |
| > 1000 | – | H-DTHFPCIIR-NH2 [Compound 305] |
| > 300 | – | H-DTHFPCIIK-NH2 (also: homodimer via disulfide between Cys6 of each monomer) [Compound 318] |
| 137 | – | H-DTKFPCIIF-NH2 (also: homodimer via disulfide between Cys6 of each monomer) [Compound 317] |
| – | 100 | B3 |
| > 1000 | – | H-DTHFPCIF-NH2 [Compound 293] |
| > 1000 | – | H-DTHFPCIIK-NH2 [Compound 304] |
| > 1000 | 0 | H-DTHFPCIEK-NH2 (also: homodimer via disulfide between Cys6 of each monomer) [Compound 323] |
| > 300 | – | H-DTHFPCILK-NH2 [Compound 309] |
| > 1000 | 0 | H-DTHFPCIEK-NH2 [Compound 310] |
| 268 | – | H-DTHFPCIIR-NH2 (also: homodimer via disulfide between Cys6 of each monomer) [Compound 319] |
| 130 | – | H-DTHFPCIKFF-NH2 (also: homodimer via disulfide between Cys6 of each monomer) [Compound 314] |
| > 300 | – | H-DTHFPCIKFF-NH2 [Compound 297] |
| – | 100 | Isovaleryl-DTHFPCIIF-NH2 (also: homodimer via disulfide between Cys6 of each monomer) [Compound 325] |
| 7 | 100 | B2 |
| > 1000 | – | H-DTKFPCIIF-NH2 [Compound 302] |
| > 300 | – | H-DTHFPCILK-NH2 (also: homodimer via disulfide between Cys6 of each monomer) [Compound 322] |

Molecular target: T2, human ferroportin (SLC40A1) fused in …
Experiment: cell-based or functional assay
Remark: another data set of the same source

| In Vitro Activity EC50 [nM] | Binder |
| --- | --- |
| 15 | Isovaleryl-DTHFPCIKFEPRSKGWVCK-NH2 (not fully specified (bridges); cysteine pairing not given here) [Compound 181] |
| 21 | Isovaleryl-DTHFPCIIFGPRSKGCK-NH2 (not fully specified (bridges); cysteine pairing not given here) [Compound 115] |
| 10 | Isovaleryl-DTHFPCIIFEPRSKGWVCK-NH2 (not fully specified (bridges); cysteine pairing not given here) [Compound 105] |
| 6 | Isovaleryl-DTHFPICIFGPRSK(PEG8(3))GWVC-NH2 (not fully specified (bridges); cysteine pairing not given here) [Compound 176] |
| 35 | Isovaleryl-DTHFPCIQFGPRSKGWVCK-NH2 (not fully specified (bridges); cysteine pairing not given here) [Compound 10] |
| 32 | Isovaleryl-DTHFPCIKFGPRSKGWVCK-NH2 (not fully specified (bridges); cysteine pairing not given here) [Compound 9] |
| 7 | DTHFPCIKFKPRSKGWVCK (not fully specified; N-terminal isovaleric acid; K10(PEG8); C-terminal NH2) [Compound 150] |
| 18 | Isovaleryl-DTHFPCIKFGPRSKGWVCK(PEG8(3))-NH2 (not fully specified (bridges); cysteine pairing not given here) [Compound 153] |
| 16 | Isovaleryl-DTHFPCIKFEPRSKGCK-NH2 (not fully specified (bridges); cysteine pairing not given here) [Compound 184] |
